According to publication doi:10.1101/2020.01.09.899237:

Target: DnaJB8ΔCTD (human)
Test: cross-linking

Sequence of HspA1A (human Hsp70) (P0DMV8 whole entry): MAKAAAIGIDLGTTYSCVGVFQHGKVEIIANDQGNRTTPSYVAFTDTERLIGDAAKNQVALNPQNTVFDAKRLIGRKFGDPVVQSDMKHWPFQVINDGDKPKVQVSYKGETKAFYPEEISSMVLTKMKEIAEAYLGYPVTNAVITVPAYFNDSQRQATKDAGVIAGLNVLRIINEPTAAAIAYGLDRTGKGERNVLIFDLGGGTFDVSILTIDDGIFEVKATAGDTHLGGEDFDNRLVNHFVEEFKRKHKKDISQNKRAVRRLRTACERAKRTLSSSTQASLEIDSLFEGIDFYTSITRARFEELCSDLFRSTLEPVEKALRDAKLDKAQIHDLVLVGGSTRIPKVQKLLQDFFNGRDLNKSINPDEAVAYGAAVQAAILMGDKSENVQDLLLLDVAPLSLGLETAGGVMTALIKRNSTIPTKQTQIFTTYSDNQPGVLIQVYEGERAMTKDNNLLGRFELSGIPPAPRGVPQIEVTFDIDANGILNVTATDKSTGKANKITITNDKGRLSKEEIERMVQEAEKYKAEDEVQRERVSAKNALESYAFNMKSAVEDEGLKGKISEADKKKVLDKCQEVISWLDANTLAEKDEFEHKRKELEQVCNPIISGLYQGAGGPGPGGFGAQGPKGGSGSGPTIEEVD

**Q.** With “HspA1A (human Hsp70) (from UniProt P0DMV8 1-641) (natural protein)” as the substance, how does the total crosslinks between the JD and HspA1A across three XL-MS experiments read?
**A.** The total crosslinks between the JD and HspA1A across three XL-MS experiments was 14 crosslinks.
